# B1: chimeric mouse/human IgG1 anti-platelet mAb (7E3) (antibody, INN chains, looked up, V domains shown)
# VH: EVQLQQSGTVLARPGASVKMSCEASGYTFTNYWMHWVKQRPGQGLEWIGAIYPGNSDTSYIQKFKGKAKLTAVTSTTSVYMELSSLTNEDSAVYYCTLYDGYYVFAYWGQGTLVTVSA
# VL: EIVLTQSPVTLSVTPGDSVSLSCRASRDISNNLHWFQQTSHESPRLLIKYASQSMSGIPSRFSGSGSGTDFTLSINSVETEDFGMYFCQQTNSWPYTFGGGTKLEIK
# modifications: IgG1
# Target: human tumor necrosis factor-α (TNFα) (human) (UniProt P01375)
# Experiment: cell-based or functional assay
# Chain of human tumor necrosis factor-α (TNFα) (human) (P01375 77-233): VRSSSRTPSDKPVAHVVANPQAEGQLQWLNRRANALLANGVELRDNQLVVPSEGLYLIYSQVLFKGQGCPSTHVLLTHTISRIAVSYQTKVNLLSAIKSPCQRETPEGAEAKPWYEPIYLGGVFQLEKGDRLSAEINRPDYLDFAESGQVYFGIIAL
binder,measurement,value
B1,"IL-6 concentration in FS-4 fibroblast supernatant; rhTNF 0.3 ng/ml, antibody 4 µg/ml",1.6 ng/mL
same,"IL-6 concentration in FS-4 fibroblast supernatant; rhTNF 1.5 ng/ml, antibody 4 µg/ml",1.96 ng/mL
same,"IL-6 concentration in FS-4 fibroblast supernatant; rhTNF 7.5 ng/ml, antibody 4 µg/ml",2.16 ng/mL

# — patent US20060018906A1
